In paper PMC1887708:

Molecular target: S107-encoded IgG (monoclonal antibody bound by the Fab-binding site of SpA)
Test: ELISA

Substance: monomeric domain D′ of SpA (domain or fragment)
- Fab-binding (relative activity in the inhibition immunoassay): 0.01 M
